Test results from patent US20140087995A1 (published 2014).
Numbered stars: 1 amine (or outer) side, 2 acyl side, 3 side chain; on linkers, the order of the positions; unused ones are H or OH. Bridge positions count the residues as written; N and C are the ends. Side chains are listed from the residue outwards. Ends that are not written are not given here. * marks the point of attachment. C20 diacid = O=C(O)CCCCCCCCCCCCCCCCCCC(=O)*; γGlu = O=C(O)[C@H](CCC(=O)[*:2])N[*:1]; AEEA = NCCOCCOCC(=O)O

T1: rat amylin receptor (rat calcitonin receptor + rat RAMP 3) (rat, UniProt P32214 25-516; Q9JJ73 23-147)
T1 construct: whole, on cells; Membranes prepared from transiently transfected BHK tk'ts 13 cells (Assay VI); also called rAmylin-R; rAmylin
T1 sequence (looked up) 1: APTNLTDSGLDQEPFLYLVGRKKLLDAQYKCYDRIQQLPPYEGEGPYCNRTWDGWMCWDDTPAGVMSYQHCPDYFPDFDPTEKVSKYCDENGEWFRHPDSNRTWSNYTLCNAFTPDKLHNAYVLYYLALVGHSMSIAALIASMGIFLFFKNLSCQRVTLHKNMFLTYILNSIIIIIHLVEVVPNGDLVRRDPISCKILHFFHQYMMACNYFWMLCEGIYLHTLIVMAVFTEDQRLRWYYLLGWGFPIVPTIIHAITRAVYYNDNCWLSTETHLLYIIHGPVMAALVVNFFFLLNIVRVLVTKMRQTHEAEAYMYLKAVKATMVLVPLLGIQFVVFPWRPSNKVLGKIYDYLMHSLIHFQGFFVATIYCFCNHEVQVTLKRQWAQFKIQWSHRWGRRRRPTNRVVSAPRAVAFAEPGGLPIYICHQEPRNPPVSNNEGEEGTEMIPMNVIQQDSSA
T1 sequence (looked up) 2: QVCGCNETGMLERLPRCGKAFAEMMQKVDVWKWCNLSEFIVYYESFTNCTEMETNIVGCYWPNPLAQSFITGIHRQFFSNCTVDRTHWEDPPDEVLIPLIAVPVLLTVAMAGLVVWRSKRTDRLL

T2: human calcitonin receptor (human, UniProt P30988 25-474)
T2 construct: whole, on cells; Membranes prepared from a stably transfected BHK cell line (Assay VII); also called hCTR; hCT
T2 sequence (looked up): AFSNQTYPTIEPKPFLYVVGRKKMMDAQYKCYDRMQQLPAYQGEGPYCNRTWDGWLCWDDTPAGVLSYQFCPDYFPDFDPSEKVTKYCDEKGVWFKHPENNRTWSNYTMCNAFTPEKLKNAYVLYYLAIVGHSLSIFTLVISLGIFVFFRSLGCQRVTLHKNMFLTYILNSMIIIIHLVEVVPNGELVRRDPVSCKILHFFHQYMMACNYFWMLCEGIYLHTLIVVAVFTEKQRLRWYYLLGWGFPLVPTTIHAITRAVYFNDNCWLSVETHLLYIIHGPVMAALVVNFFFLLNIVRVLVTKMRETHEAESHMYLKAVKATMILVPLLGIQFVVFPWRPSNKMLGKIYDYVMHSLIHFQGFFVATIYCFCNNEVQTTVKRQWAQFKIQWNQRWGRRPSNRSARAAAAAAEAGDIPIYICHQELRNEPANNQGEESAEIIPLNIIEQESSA

T3: rat calcitonin receptor (rat, UniProt P32214 25-516)
T3 construct: whole, on cells; Membranes prepared from transiently transfected BHK tk'ts 13 cells (Assay VIII); also called rCTR; rCT
T3 sequence (looked up): T1 sequence (looked up) 1

B1: N^ε1-[2-[2-[2-(19-carboxynonadecanoylamino)ethoxy]ethoxy]acetyl]-[Arg17,Pro21,Pro27,His34]-h-amylin (peptide)
peptide: K([AEEA-C20 diacid])CNTATCATQRLANFLRHSSPNFGAIPSSTNVGHNTY-NH2
modifications: disulfide 2-7; N-terminus assumed
SMILES: CC[C@H](C)[C@H](NC(=O)[C@H](C)NC(=O)CNC(=O)[C@H](Cc1ccccc1)NC(=O)[C@H](CC(N)=O)NC(=O)[C@@H]1CCCN1C(=O)[C@H](CO)NC(=O)[C@H](CO)NC(=O)[C@H](Cc1c[nH]cn1)NC(=O)[C@H](CCCNC(=N)N)NC(=O)[C@H](CC(C)C)NC(=O)[C@H](Cc1ccccc1)NC(=O)[C@H](CC(N)=O)NC(=O)[C@H](C)NC(=O)[C@H](CC(C)C)NC(=O)[C@H](CCCNC(=N)N)NC(=O)[C@H](CCC(N)=O)NC(=O)[C@@H](NC(=O)[C@H](C)NC(=O)[C@@H]1CSSC[C@H](NC(=O)[C@@H](N)CCCCNC(=O)COCCOCCNC(=O)CCCCCCCCCCCCCCCCCCC(=O)O)C(=O)N[C@@H](CC(N)=O)C(=O)N[C@@H]([C@@H](C)O)C(=O)N[C@@H](C)C(=O)N[C@@H]([C@@H](C)O)C(=O)N1)[C@@H](C)O)C(=O)N1CCC[C@H]1C(=O)N[C@@H](CO)C(=O)N[C@@H](CO)C(=O)N[C@H](C(=O)N[C@@H](CC(N)=O)C(=O)N[C@H](C(=O)NCC(=O)N[C@@H](Cc1c[nH]cn1)C(=O)N[C@@H](CC(N)=O)C(=O)N[C@H](C(=O)N[C@@H](Cc1ccc(O)cc1)C(N)=O)[C@@H](C)O)C(C)C)[C@@H](C)O
notes: Analogue of human amylin; also called compound 91
B2: N^ε1-[2-[2-[2-[[(4S)-4-carboxy-4-(19-carboxynonadecanoylamino)butanoyl]amino]ethoxy]ethoxy]acetyl]-[Ala14,Arg17,Pro21,Pro27,Pro31]-h-amylin (peptide)
peptide: K([AEEA-γGlu-C20 diacid])CNTATCATQRLAAFLRHSSPNFGAIPSSTPVGSNTY-NH2
modifications: disulfide 2-7; N-terminus assumed
SMILES: CC[C@H](C)[C@H](NC(=O)[C@H](C)NC(=O)CNC(=O)[C@H](Cc1ccccc1)NC(=O)[C@H](CC(N)=O)NC(=O)[C@@H]1CCCN1C(=O)[C@H](CO)NC(=O)[C@H](CO)NC(=O)[C@H](Cc1c[nH]cn1)NC(=O)[C@H](CCCNC(=N)N)NC(=O)[C@H](CC(C)C)NC(=O)[C@H](Cc1ccccc1)NC(=O)[C@H](C)NC(=O)[C@H](C)NC(=O)[C@H](CC(C)C)NC(=O)[C@H](CCCNC(=N)N)NC(=O)[C@H](CCC(N)=O)NC(=O)[C@@H](NC(=O)[C@H](C)NC(=O)[C@@H]1CSSC[C@H](NC(=O)[C@@H](N)CCCCNC(=O)COCCOCCNC(=O)CC[C@H](NC(=O)CCCCCCCCCCCCCCCCCCC(=O)O)C(=O)O)C(=O)N[C@@H](CC(N)=O)C(=O)N[C@@H]([C@@H](C)O)C(=O)N[C@@H](C)C(=O)N[C@@H]([C@@H](C)O)C(=O)N1)[C@@H](C)O)C(=O)N1CCC[C@H]1C(=O)N[C@@H](CO)C(=O)N[C@@H](CO)C(=O)N[C@H](C(=O)N1CCC[C@H]1C(=O)N[C@H](C(=O)NCC(=O)N[C@@H](CO)C(=O)N[C@@H](CC(N)=O)C(=O)N[C@H](C(=O)N[C@@H](Cc1ccc(O)cc1)C(N)=O)[C@@H](C)O)C(C)C)[C@@H](C)O
notes: Analogue of human amylin; also called compound 72
B3: N^ε1-[2-[2-[2-[[(4S)-4-carboxy-4-(19-carboxynonadecanoylamino)butanoyl]amino]ethoxy]ethoxy]acetyl]-[Arg14,Arg17,Pro21,Pro27,Pro31]-h-amylin (peptide)
peptide: K([AEEA-γGlu-C20 diacid])CNTATCATQRLARFLRHSSPNFGAIPSSTPVGSNTY-NH2
modifications: disulfide 2-7; N-terminus assumed
SMILES: CC[C@H](C)[C@H](NC(=O)[C@H](C)NC(=O)CNC(=O)[C@H](Cc1ccccc1)NC(=O)[C@H](CC(N)=O)NC(=O)[C@@H]1CCCN1C(=O)[C@H](CO)NC(=O)[C@H](CO)NC(=O)[C@H](Cc1c[nH]cn1)NC(=O)[C@H](CCCNC(=N)N)NC(=O)[C@H](CC(C)C)NC(=O)[C@H](Cc1ccccc1)NC(=O)[C@H](CCCNC(=N)N)NC(=O)[C@H](C)NC(=O)[C@H](CC(C)C)NC(=O)[C@H](CCCNC(=N)N)NC(=O)[C@H](CCC(N)=O)NC(=O)[C@@H](NC(=O)[C@H](C)NC(=O)[C@@H]1CSSC[C@H](NC(=O)[C@@H](N)CCCCNC(=O)COCCOCCNC(=O)CC[C@H](NC(=O)CCCCCCCCCCCCCCCCCCC(=O)O)C(=O)O)C(=O)N[C@@H](CC(N)=O)C(=O)N[C@@H]([C@@H](C)O)C(=O)N[C@@H](C)C(=O)N[C@@H]([C@@H](C)O)C(=O)N1)[C@@H](C)O)C(=O)N1CCC[C@H]1C(=O)N[C@@H](CO)C(=O)N[C@@H](CO)C(=O)N[C@H](C(=O)N1CCC[C@H]1C(=O)N[C@H](C(=O)NCC(=O)N[C@@H](CO)C(=O)N[C@@H](CC(N)=O)C(=O)N[C@H](C(=O)N[C@@H](Cc1ccc(O)cc1)C(N)=O)[C@@H](C)O)C(C)C)[C@@H](C)O
notes: Analogue of human amylin; also called compound 64

Molecular target: T1, rat amylin receptor (rat calcitonin …)
Test: SPA competition vs 125I-rat amylin, membranes of BHK cells with rat calcitonin receptor + rat RAMP3 (Assay VI)
Procedure: The binding assay was performed using scintillation proximity assay (SPA) beads (RPNQ0001) from PerkinElmer and cell membranes from the Amylin 3(a)/CRE-luc cells (as described in Assay (II)) were used. Membranes were prepared in the following way; the cells were rinsed with PBS and incubated with Versene for approximately 5 min before harvesting. The cells were flushed with PBS and the cell-suspension was centrifuged for 5 min at 1000 rpm. Cells were homogenized (ultrathurrax) in a buffer containing 20 mM Na-HEPES and 10 mM EDTA (pH 7.4) and centrifuged at 20.000 rpm for 15 min. The resulting pellet was resuspended, homogenized and centrifuged (20.000 rpm, 15 min) in a buffer containing 20 mM Na-HEPES and 0.1 mM EDTA (pH 7.4, buffer 2). The resulting pellet was resuspended in buffer 2 and protein concentration was measured (BCA protein Assay, Pierce). The homogenate was kept cold during the whole procedure. The membranes were kept at −80° C. until use. The assay was performed in a 384 well Optiplate (PerkinElmer) in a total volume of 40 ul. Membranes were mixed with SPA beads. Final concentration of membranes 35 ng/μL final and SPA beads was 0.05 mg/well. Test-compounds were dissolved in DMSO and further diluted in assay buffer (50 mM Hepes, pH 7.4, 1 mM CaCl2, 5 mM MgCl₂, 0.1% OA and 0.02% Tween20). […] The final mixture was incubated with shaking at 400 rpm for 120 min at 25° C. prior to centrifugation (1500 rpm, 10 min). Samples were analyzed on TopCounter™ (Packard). The IC₅₀ was calculated using (one site binding competition analysis) GraphPad Prism5 as a measure of receptor affinity.
Cells were grown in DMEM with 10% FBS and 1% Pen/Strep. Approximately 48 hours after transfection, the cells were harvested and membranes were prepared.

Compared with B1, B2 is 2.2-fold higher in IC50: 0.386 nM for the first, 0.851 nM for the second. The first is the more potent here.

B3 showed an IC50 of 1.97 nM.

Molecular target: T2, human calcitonin receptor
Test: ratio of binding IC50s: human calcitonin receptor / human amylin receptor (reference)
Procedure: The resulting pellet was resuspended, homogenized and centrifuged (20.000 rpm, 15 min) in a buffer containing 20 mM Na-HEPES and 0.1 mM EDTA (pH 7.4, buffer 2). The resulting pellet was resuspended in buffer 2 and protein concentration was measured (BCA protein Assay, Pierce). The homogenate was kept cold during the whole procedure. The membranes were kept at −80° C. until use. The assay was performed in a 384 well Optiplate (PerkinElmer) in a total volume of 40 ul. Membranes were mixed with SPA beads. Final concentration of membranes 35 ng/μL final and SPA beads was 0.05 mg/well. Test-compounds were dissolved in DMSO and further diluted in assay buffer (50 mM Hepes, pH 7.4, 1 mM CaCl2, 5 mM MgCl₂, 0.1% OA and 0.02% Tween20). […] The final mixture was incubated with shaking at 400 rpm for 120 min at 25° C. prior to centrifugation (1500 rpm, 10 min). Samples were analyzed on TopCounter™ (Packard). The IC₅₀ was calculated using (one site binding competition analysis) GraphPad Prism5 as a measure of receptor affinity.
Membranes were prepared in the following way; the cells were rinsed with PBS and incubated with Versene for approximately 5 min before harvesting. The cells were flushed with PBS and the cell-suspension was centrifuged for 5 min at 1000 rpm. Cells were homogenized (Ultrathurrax) in a buffer containing 20 mM Na-HEPES and 10 mM EDTA (pH 7.4) and centrifuged at 20.000 rpm for 15 min. The resulting pellet was resuspended, homogenized and centrifuged (20.000 rpm, 15 min) in a buffer containing 20 mM Na-HEPES and 0.1 mM EDTA (pH 7.4, buffer 2). The resulting pellet was resuspended in buffer 2 and protein concentration was measured (BCA protein Assay, Pierce). The homogenate was kept cold during the whole procedure. The membranes were kept at −80° C. until use. Assay was performed in a 384 well Optiplate (PerkinElmer) in a total volume of 40 ul. Membranes were mixed with SPA beads.

Compared with B1, B2 is higher in “Ratio hCT/hAmylin binding” value: 101 for the first, 247 for the second.

In the case of B3, the “Ratio hCT/hAmylin binding” value is reported as 126.

Molecular target: T3, rat calcitonin receptor
Test: SPA competition vs 125I-calcitonin, membranes of BHK cells with rat calcitonin receptor (Assay VIII)

Compared with B1, B2 is 7.5-fold higher in IC50: 29.4 nM for the first, 221 nM for the second. The first is the more potent here.

With B3 the IC50 was 128 nM.

Molecular target: T3, rat calcitonin receptor
Test: ratio of binding IC50s: rat calcitonin receptor / rat amylin receptor (reference)

Going from B1 to B2, the “Ratio rCT/rAmylin binding” value rises from 76.3 to 259.

In the case of B3, the “Ratio rCT/rAmylin binding” value is reported as 64.7.
